Reference: patent US20140378536A1 (VALTED, published 2014)

Molecular target: T1, FLAG-tagged PARIS (full-length PARIS, ZNF746, in pCMV-Tag2A) (human, UniProt Q6NUN9 1-644)
T1 construct: Expressed in SH-SY5Y cells from cDNA IMAGE:30347892; The construct limits it prints (1-644, 322-644) match the 644-residue human entry; also called FLAG-PARIS; pCMV-FLAG-PARIS; not shown: N-terminal FLAG tag of vector pCMV-Tag2A
Test: co-immunoprecipitation, IP of FLAG-PARIS (FIG. 20)
Experimental: For co-immunoprecipitation from cell cultures, SH-SY5Y cells were transfected with 2 μg of each plasmid, unless otherwise indicated.

T1 sequence (Q6NUN9 whole entry): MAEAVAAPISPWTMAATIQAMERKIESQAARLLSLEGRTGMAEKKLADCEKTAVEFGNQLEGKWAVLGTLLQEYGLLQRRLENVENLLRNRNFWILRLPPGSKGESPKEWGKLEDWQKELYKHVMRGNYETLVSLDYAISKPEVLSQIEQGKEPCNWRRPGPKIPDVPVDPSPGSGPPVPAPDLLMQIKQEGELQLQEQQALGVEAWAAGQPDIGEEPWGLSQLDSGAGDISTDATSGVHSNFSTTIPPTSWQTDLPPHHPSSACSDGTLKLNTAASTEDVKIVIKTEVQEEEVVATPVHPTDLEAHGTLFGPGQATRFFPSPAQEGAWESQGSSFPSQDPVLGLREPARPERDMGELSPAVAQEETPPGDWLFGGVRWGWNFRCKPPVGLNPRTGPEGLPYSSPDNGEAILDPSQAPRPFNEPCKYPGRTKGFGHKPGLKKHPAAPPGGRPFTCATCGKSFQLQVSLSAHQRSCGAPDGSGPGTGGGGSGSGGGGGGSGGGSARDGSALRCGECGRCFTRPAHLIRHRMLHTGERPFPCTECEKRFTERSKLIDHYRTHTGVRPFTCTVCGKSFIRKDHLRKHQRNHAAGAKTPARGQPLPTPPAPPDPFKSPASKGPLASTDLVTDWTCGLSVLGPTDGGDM

binding result: no binding
B1: HA-tagged parkin truncation, amino acids 1-198 (UBL-SH) (other, UniProt O60260 1-198, looked up)
chain: MIVFVRFNSSHGFPVEVDSDTSIFQLKEVVAKRQGVPADQLRVIFAGKELRNDWTVQNCDLDQQSIVHIVQRPWRKGQEMNATGGDDPRNAAGGCEREPQSLTRVDLSSSVLPGDSVGLAVILHTDSRKDSPPAGSPAGRSIYNSFYVYCKGPCQRVQPGKLRVQCSTCRQATLTLTQGPSCWDDVLIPNRMSGECQS
notes: range 1-198; also called N-terminal UBL-SH domain; not shown: HA tag of vector pRK5-HA
